Measured values taken from patent US12268749B2, “Cell-penetrating peptides” (Oxford University Innovation Limited, priority 2018, dated 2025).

Key:
[1] = toxicological assessment of peptide-PMO in C57BL/6 mice (urinary KIM-1, NGAL; serum BUN); assay type: in vivo, mouse; conditions: 7 days after single dose of 30 mg/kg, FIG. 7
Experimental: Female C57BL/6 mice aged 8-10 weeks were administered a single 30 mg/kg dose of peptide-PMO in 0.9% saline by bolus intravenous tail vein injection. Urine was non-invasively collected under chilled conditions at Day 2 and Day 7 post-administration following 20 hours housing in metabolic cages (Tecniplast, UK). Serum was collected from jugular vein at Day 7 at necropsy, as was tibialis anterior, diaphragm and heart tissue.
The same procedure was followed at different single dosage amounts ranging from 2.5 mg/kg up to 50 mg/kg of peptide-PMO in 0.9% saline by intravenous tail vein injection.
Urinary levels of KIM-1 (Kidney injury molecule-1) and NGAL (Neutrophil Gelatinase-Associated Lipocalin) were quantified by ELISA (KIM-1 R&D cat #MKM100, NGAL R&D cat #MLCN20) following appropriate dilution of urine to fit standard curves. Values were normalised to urinary creatinine levels that were quantified at MRC Harwell Institute, Mary Lyon Centre, Oxfordshire, UK. Serum blood urea nitrogen levels were quantified at MRC Harwell Institute, Mary Lyon Centre, Oxfordshire, UK.
All levels were quanitifed on an AU680 Clinical Chemistry Analyser, Beckman Coulter.

exon 51 = conditions: in vivo; cited from earlier work

Ac-RXRRBRR-FQILY-RBRXR-B [Pip9b2]
Serum blood urea nitrogen levels [1]: elevated

eteplirsen
levels of dystrophin restoration (exon 51): approximately 1 % of normal dystrophin levels
